{"source": "paper PMC11724075", "about": "“Small-molecule-induced ERBB4 activation to treat heart failure” (Nature Communications, 2025)", "key": {"Erbb4-null mice": {"test_system": "Erbb4-null mice", "test": "Survival of Erbb4-null mice under AngII treatment", "type": "in vivo, mouse", "set-up": "key to Survival probability in AngII-treated Erbb4-null mice: 0: Survived until end of experiment; 1: Died before the end of the experiment", "excerpt": "Floxed Erbb4 mice (Erbb4^f/f; C57BL/6N; 129-Erbb4tm1Fej/Mmucd, MMRRC, #010439-UCD) were crossed with CAGGCre-ER^TM mice (Jackson Laboratory, 004682) containing the Tg(CAG-cre/Esr1*)5Amc transgene that expresses Cre recombinase under the control of a chicken beta actin promoter/enhancer coupled to the human cytomegalovirus immediate-early gene enhancer, resulting in expression of tamoxifen-inducible Cre-ERT in most cell types. To induce Cre recombinase-mediated deletion of Erbb4, eleven-week-old female and male iCAGGCre-ER^TM/Erbb4^f/f mice were intraperitoneally injected with tamoxifen (Merck, T5648; 10 mg/kg; in corn oil) daily for 5 consecutive days.\nStatistical analysis was performed using GraphPad Prism version 10. Data are presented as the mean value of biological replicates (unless stated otherwise) ± SD. Data was checked for normality using the Shapiro–Wilk normality test. […]\nSupplementary Figure 6. […] (a) Representative images of Masson’s trichrome staining of AngII-induced myocardial fibrosis following treatment with NA-1 and corresponding graphs showing the quantitation for total and perivascular fibrosis in male mice (n=5 male mice in Ctrl and AngII/Veh group, n=4 male mice in AngII/NA-1 group). […]"}, "HCFs": {"test_system": "HCFs", "test": "In vitro collagen expression: COL3A1 mRNA in HCFs stimulated with TGF-β1", "type": "cell-based, human", "method": "HCFs were seeded at a density of 1.5 ×10^5 cells/well in doxycycline-free medium in 12-well plates (Greiner Bio-One, 665180) and incubated overnight. […] Compounds were pre-incubated for 10 min before addition of TGF-β1.\nRNA was extracted using Nucleospin RNA XS (Macherey-Nagel, 740902.50) according to the manufacturer’s instructions. For cDNA synthesis, total RNA was added to a mixture containing buffer with random hexamers and reverse transcriptase enzyme (TaqMan reverse transcription reagents, Applied biosystems, N8080234) after which samples were incubated for 10 min at 25 °C, 30 min at 48 °C, and 5 min at 95 °C. RT-qPCR was performed on QuantStudio 3 Real-time PCR system (Applied Biosystems) using Taqman Universal PCR Master Mix (Applied Biosystems, 4304437) and Taqman primers according to the manufacturer’s instructions. Settings were as follows: […] followed by 10 min at 95 °C, 40 cycles (45 cycles for ERBB4) of denaturation at 95 °C for 15 s, and 1 min at 60 °C. All reactions were run in duplicate, and all data were normalized against housekeeping genes glyceraldehyde-3-phosphate dehydrogenase (GAPDH), beta-actin (ACTB), or phosphoglycerate kinase 1 (PGK1). Expression levels were calculated using the comparative cycle method and expressed as fold change (FC) to appropriate controls. The following TaqMan primers were used (Thermo Fisher Scientific): GAPDH (Hs02758991_g1, Mm99999915_g1 and Rn01775763_g1), PGK1 (Hs99999906_m1), ID2 (Hs04187239_m1), BMPR1B (Hs01010965_m1), CACNA2D4 (Hs00297782_m1), DUSP2 (Hs00358879_m1), NR4A1 (Hs00374226_m1), SGK1 (Hs00178612_m1), COL1A1 (Mm00801666_g1), COL3A1 (Hs00943809_m1 and Mm00802305_g1), ERBB4 (Hs00955525_m1 and Rn00572447_m1), ACTB (Mm02619580_g1) and ANP (Mm01255747_g1)."}}, "note": "“And” between values parts separate entries of the source, which are not always exact repeats. Equal entries are not always repeated.", "data": [{"substance": "angiotensin II (DRVYIHPF; Angiotensin-2; UniProt P01019 25-32, looked up) [AngII, inducer of hypertrophy in iAMs and of myocardial fibrosis in mice]", "values": [{"measurement": "Survival probability in AngII-treated Erbb4-null mice", "setting": "Erbb4-null mice; 1000 ng/kg AngII, Erbb4-null mice, individual animals", "value": "1 and 0"}, {"measurement": "mortality in Erbb4-null mice", "setting": "Erbb4-null mice; AngII dose of 1000 ng/kg/day", "value": 80, "unit": "%"}]}, {"substance": "transforming growth factor β1 [TGF-β1, reference compound]", "values": [{"measurement": "increase of COL3A1 mRNA levels in HCFs", "setting": "HCFs; TGF-β1 10 ng/mL", "value": 36, "unit": "%"}, {"measurement": "COL3A1 mRNA expression (FC), HCF validation TGFβ", "setting": "HCFs; TGFβ vs Vehicle, single replicates", "value": "1.323 and 1.4 and 1.364"}]}]}
